Source: US20220040297A1 (Chugai, published 2022)
Numbering of substitutions follows the chain as printed.

B1: GLS3000 S52Y (antibody, name in Kabat numbering, V domains shown)
VH: QVQLVESGGGVVQPGRSLRLSCAASGFTFSNAWMHWVRQAPGKGLEWVAQIKAKSNNYATYYAESVKGRFTISRDDSKNSLYLQMNSLKTEDTAVYYCRYVHYGAYYGVDAWGQGTTVTVSS
VL: DIVMTQSPLSLPVTPGEPASISCRSSQSLVHSNRNTYLHWYQQKPGQAPRLLIYKVYNRFSGVPDRFSGSGSGTDFTLKISRVEAEDVGVYYCGQGTQVPYTFGQGTKLEIK
notes: one-arm format as m2
B2: GLS3000 T31E (antibody, name in Kabat numbering, V domains shown)
VH: B1 VH
VL: B1 VL with T36E, Y57S
notes: one-arm format as m2
B3: GLS3000 V51D (antibody, name in Kabat numbering, V domains shown)
VH: B1 VH
VL: B1 VL with V56D, Y57S
notes: one-arm format as m2
B4: GLS3000 V51G (antibody, name in Kabat numbering, V domains shown)
VH: B1 VH
VL: B1 VL with V56G, Y57S
notes: one-arm format as m2
B5: GLS3000 S56H (antibody, name in Kabat numbering, V domains shown)
VH: B1 VH
VL: B1 VL with Y57S, S61H
notes: one-arm format as m2
B6: GLS3000 V27cI (antibody, name in Kabat numbering, V domains shown)
VH: B1 VH
VL: B1 VL with V30I, Y57S
notes: one-arm format as m2
B7: GLS3000 S56T (antibody, name in Kabat numbering, V domains shown)
VH: B1 VH
VL: B1 VL with Y57S, S61T
notes: one-arm format as m2
B8: GLS3000 T92E (antibody, name in Kabat numbering, V domains shown)
VH: B1 VH
VL: B1 VL with Y57S, T97E
notes: one-arm format as m2
B9: GLS3000 V27cE (antibody, name in Kabat numbering, V domains shown)
VH: B1 VH
VL: B1 VL with V30E, Y57S
notes: one-arm format as m2
B10: GLS3000 T31K (antibody, name in Kabat numbering, V domains shown)
VH: B1 VH
VL: B1 VL with T36K, Y57S
notes: one-arm format as m2
B11: GLS3000 S56P (antibody, name in Kabat numbering, V domains shown)
VH: B1 VH
VL: B1 VL with Y57S, S61P
notes: one-arm format as m2
B12: GLS3000 V27cY (antibody, name in Kabat numbering, V domains shown)
VH: B1 VH
VL: B1 VL with V30Y, Y57S
notes: one-arm format as m2
B13: GLS3000 S56F (antibody, name in Kabat numbering, V domains shown)
VH: B1 VH
VL: B1 VL with Y57S, S61F
notes: one-arm format as m2
B14: GLS3000 V27cS (antibody, name in Kabat numbering, V domains shown)
VH: B1 VH
VL: B1 VL with V30S, Y57S
notes: one-arm format as m2
B15: GLS3000 S56A (antibody, name in Kabat numbering, V domains shown)
VH: B1 VH
VL: B1 VL with Y57S, S61A
notes: one-arm format as m2
B16: GLS3000 V51E (antibody, name in Kabat numbering, V domains shown)
VH: B1 VH
VL: B1 VL with V56E, Y57S
notes: one-arm format as m2
B17: GLS3000 T31P (antibody, name in Kabat numbering, V domains shown)
VH: B1 VH
VL: B1 VL with T36P, Y57S
notes: one-arm format as m2
B18: GLS3000 S56I (antibody, name in Kabat numbering, V domains shown)
VH: B1 VH
VL: B1 VL with Y57S, S61I
notes: one-arm format as m2
B19: GLS3000 T92L (antibody, name in Kabat numbering, V domains shown)
VH: B1 VH
VL: B1 VL with Y57S, T97L
notes: one-arm format as m2
B20: GLS3000 T92Y (antibody, name in Kabat numbering, V domains shown)
VH: B1 VH
VL: B1 VL with Y57S, T97Y
notes: one-arm format as m2
B21: GLS3000 V27cD (antibody, name in Kabat numbering, V domains shown)
VH: B1 VH
VL: B1 VL with V30D, Y57S
notes: one-arm format as m2
B22: GLS3000 S56E (antibody, name in Kabat numbering, V domains shown)
VH: B1 VH
VL: B1 VL with Y57S, S61E
notes: one-arm format as m2
B23: GLS3000 T92D (antibody, name in Kabat numbering, V domains shown)
VH: B1 VH
VL: B1 VL with Y57S, T97D
notes: one-arm format as m2
B24: GLS3000 S56G (antibody, name in Kabat numbering, V domains shown)
VH: B1 VH
VL: B1 VL with Y57S, S61G
notes: one-arm format as m2
B25: GLS3000 T92S (antibody, name in Kabat numbering, V domains shown)
VH: B1 VH
VL: B1 VL with Y57S, T97S
notes: one-arm format as m2
B26: GLS3000 T31I (antibody, name in Kabat numbering, V domains shown)
VH: B1 VH
VL: B1 VL with T36I, Y57S
notes: one-arm format as m2
B27: GLS3000 S56K (antibody, name in Kabat numbering, V domains shown)
VH: B1 VH
VL: B1 VL with Y57S, S61K
notes: one-arm format as m2
B28: GLS3000 V51P (antibody, name in Kabat numbering, V domains shown)
VH: B1 VH
VL: B1 VL with V56P, Y57S
notes: one-arm format as m2
B29: GLS3000 T31D (antibody, name in Kabat numbering, V domains shown)
VH: B1 VH
VL: B1 VL with T36D, Y57S
notes: one-arm format as m2
B30: GLS3000 S56N (antibody, name in Kabat numbering, V domains shown)
VH: B1 VH
VL: B1 VL with Y57S, S61N
notes: one-arm format as m2
B31: GLS3000 S56V (antibody, name in Kabat numbering, V domains shown)
VH: B1 VH
VL: B1 VL with Y57S, S61V
notes: one-arm format as m2
B32: GLS3000 S56D (antibody, name in Kabat numbering, V domains shown)
VH: B1 VH
VL: B1 VL with Y57S, S61D
notes: one-arm format as m2
B33: GLS3000 T92I (antibody, name in Kabat numbering, V domains shown)
VH: B1 VH
VL: B1 VL with Y57S, T97I
notes: one-arm format as m2
B34: GLS3000 S56R (antibody, name in Kabat numbering, V domains shown)
VH: B1 VH
VL: B1 VL with Y57S, S61R
notes: one-arm format as m2
B35: GLS3000 T92P (antibody, name in Kabat numbering, V domains shown)
VH: B1 VH
VL: B1 VL with Y57S, T97P
notes: one-arm format as m2
B36: GLS3000 V27cL (antibody, name in Kabat numbering, V domains shown)
VH: B1 VH
VL: B1 VL with V30L, Y57S
notes: one-arm format as m2
B37: GLS3000 S56Q (antibody, name in Kabat numbering, V domains shown)
VH: B1 VH
VL: B1 VL with Y57S, S61Q
notes: one-arm format as m2
B38: GLS3000 S56W (antibody, name in Kabat numbering, V domains shown)
VH: B1 VH
VL: B1 VL with Y57S, S61W
notes: one-arm format as m2
B39: GLS3000 S56Y (antibody, name in Kabat numbering, V domains shown)
VH: B1 VH
VL: B1 VL with Y57S, S61Y
notes: one-arm format as m2
B40: GLS3000 V51I (antibody, name in Kabat numbering, V domains shown)
VH: B1 VH
VL: B1 VL with V56I, Y57S
notes: one-arm format as m2
B41: GLS3000 T97P (antibody, name in Kabat numbering, V domains shown)
VH: B1 VH
VL: B1 VL with Y57S, T102P
notes: one-arm format as m2
B42: GLS3000 S56M (antibody, name in Kabat numbering, V domains shown)
VH: B1 VH
VL: B1 VL with Y57S, S61M
notes: one-arm format as m2
B43: GLS3000 S56L (antibody, name in Kabat numbering, V domains shown)
VH: B1 VH
VL: B1 VL with Y57S, S61L
notes: one-arm format as m2
B44: GLS3000 V27cP (antibody, name in Kabat numbering, V domains shown)
VH: B1 VH
VL: B1 VL with V30P, Y57S
notes: one-arm format as m2
B45: GLS3000 T31N (antibody, name in Kabat numbering, V domains shown)
VH: B1 VH
VL: B1 VL with T36N, Y57S
notes: one-arm format as m2
B46: GLS3000 T92A (antibody, name in Kabat numbering, V domains shown)
VH: B1 VH
VL: B1 VL with Y57S, T97A
notes: one-arm format as m2

The binders below were run against CD3ε homodimer protein (human, UniProt P07766 23-126, limits assumed) (assay: SPR, immobilized CD3ε homodimer;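 further: biacore T200 surface plasmon resonance at 25 °C, antibody variants flowed as analytes over amine-coupled CD3ε homodimer on a CM4 chip, variant binding amount divided by that of GLS3000 antibody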).
CD3ε homodimer protein, sequence (P07766 23-126 limits assumed): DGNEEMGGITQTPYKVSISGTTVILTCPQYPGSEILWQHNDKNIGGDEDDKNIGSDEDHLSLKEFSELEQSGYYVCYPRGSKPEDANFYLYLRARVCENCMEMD

| Binder | ratio of amounts bound (vs GLS3000) |
| --- | --- |
| B1 | 1.12 |
| B2 | 0.49 |
| B3 | 0.33 |
| B4 | 0.84 |
| B5 | 1.05 |
| B6 | 0.96 |
| B7 | 0.97 |
| B8 | 0.17 |
| B9 | 0.61 |
| B10 | 1.04 |
| B11 | 0.95 |
| B12 | 0.77 |
| B13 | 1.32 |
| B14 | 0.51 |
| B15 | 1.16 |
| B16 | 0.64 |
| B17 | 0.31 |
| B18 | 0.99 |
| B19 | 0.42 |
| B20 | 0.33 |
| B21 | 0.32 |
| B22 | 0.71 |
| B23 | 0.18 |

| Binder | ratio of amounts bound (vs GLS3000) |
| --- | --- |
| B24 | 0.92 |
| B25 | 0.96 |
| B26 | 0.97 |
| B27 | 1.46 |
| B28 | 0.32 |
| B29 | 0.23 |
| B30 | 0.92 |
| B31 | 0.95 |
| B32 | 0.77 |
| B33 | 0.34 |
| B34 | 1.36 |
| B35 | 0.26 |
| B36 | 0.84 |
| B37 | 1.04 |
| B38 | 1.38 |
| B39 | 1.46 |
| B40 | 0.81 |
| B41 | 0.31 |
| B42 | 1.05 |
| B43 | 1.02 |
| B44 | 0.3 |
| B45 | 0.32 |
| B46 | 0.63 |
